The test system of series [1] is FGFR4-dependent phosphorylation of FRS2. Kind of series: Western blot of FGF19-induced FRS2/FGFR4 phosphorylation in HCC cells. The class given is cell-based, human. The conditions noted are these: Huh7; antibodies 100 or 200 ug/mL, BLU9931 0.1 uM or 1 uM; FIG. 21. Here is the method:
FIG. 21. Inhibition of FGF19-dependent FGFR4 and FRS2 phosphorylation in Huh7 cells treated with the anti-FGFR4 chimeric antibodies analyzed by Western Blot. Cells were treated with 100 or 200 ug/mL of each antibody, with 0.1 uM or 1 uM BLU9931, or with PBS prior of the addition of FGF19/heparin under the experimental conditions described in the Example 8.
FIG. 31. […] (A) Graph of the absorbance values at 450 nm obtained from a FGFR4-Fc-dependent solid phase binding assay, as a function of the concentration of ab41948. Serial 1:3 dilutions (10 experimental points from 0.00005 ug/mL to 1 ug/mL) were tested in triplicate on the extracellular regions of FGFR4 fused with human Fc. The continuous line is the experimental one while the dashed line is that obtained by fitting experimental data to the “one site binding” equation. […] Inhibition curves were derived by 4P logistic fitting of the experimental data with the KaleidaGraph software, based on the residual absorbance at 450 nm (% of PBS control) at increasing antibody concentrations (1:3 serial dilutions from 0.001 to 10 ug/mL). […]
BLU9931 was included as positive control Ih before cell lysis at concentrations of […]. Total protein lysates in SDS were prepared and analyzed by Western Blot using an anti-phospho-FRS2 antibody (Tyrl96, Cell Signalling), an anti-FRS2 antibody (LSBio) and an anti-GAPDH antibody (Sigma-Aldrich). […]
A general note: Immunoblotting shows a protein as a band on a membrane.

The test system of series [2] is FGFR4 signalling pathway (CYP7A1, CTGF mRNA).

2 compounds from US11643467B2, “Monoclonal antibody anti-FGFR4” (EXIRIS S.R.L., priority 2017, dated 2023) can be followed below.

As to `C=CC(=O)Nc1cccc(C)c1Nc1ncc2cc(-c3c(Cl)c(OC)cc(OC)c3Cl)ccc2n1` [BLU9931, reference compound], the “inhibition of FGF19-induced FGFR4 and FRS2 phosphorylation” value in series [1] was “could inhibit FGF19-induced FGFR4 and FRS2 phosphorylation”.
Regarding “FGF19: recombinant FGF19 (Peprotech), FGFR4 ligand”, in series [2], the “increase of CTGF expression” value is reported as “about 2.5 fold” and the “reduction of CYP7A1 expression” value is “about 5 fold”.
